According to patent publication EP3016671B1, “ACTIVELY T[…] PROTEASE-RESISTANT PEPTIDES AS BBB SHUTTLES AND SHUTTLE-CARGO CONSTRUCTS” (Universitat de Barcelona, priority 2013, dated 2015):
Positions of bridges follow the written chain, without caps; N, C: chain ends. Non-standard residues stand in square brackets, D forms with d. Residues, ends and D or L forms follow the SMILES beside them. *: point of attachment. X1 = CCN(CC)c1ccc2c(-c3ccc(S(=O)(=O)*)cc3S(=O)(=O)[O-])c3ccc(=[N+](CC)CC)cc-3oc2c1; Biotin = O=C1N[C@H]2[C@H](CS[C@H]2CCCCC(=O)*)N1; Dopa = N[C@@H](Cc1ccc(O)c(O)c1)C(=O)O; Dap = NC[C@H](N)C(=O)O

Legend:
[1] = tested on: bovine brain endothelial cells; assay: Transport across the BBB, in vitro bovine cell assay (co-culture, transwell); conditions: bovine cell model; for Transport (%) (2h) / Papp (x 10^6) cm/s: 37 °C, Ringer-HEPES pH 7.4, 200 µM (Example 21: 1.75 µM), 2 h; for detection of the cargo alone in the acceptor compartments by MALDI-TOF MS: after the 2 h assay, cargo without shuttle; for Papp (x 10^6) cm/s: triplicate
From the text: (§1) The evaluation method chosen to test the compounds of formula (I) and (II) of the invention was a cell-based assay consisting of a co-culture of brain endothelial cells and astrocytes, which allows to evaluate or to predict the transport of compounds through the BBB. The co-culture method used was described by Gaillard and de Boer in 2008 (Gaillard, PJ et al. "2B-Trans technology: targeted drug delivery across the blood-brain barrier" Methods Mol Biol 2008, vol. 437 pp. 161-175) and consists in seeding of rat astrocytes in a side of a polycarbonate filter (transwell) and bovine brain endothelial cells on the other side of the filter. Under these conditions endothelial cells are able to reach the confluence mimicking the BBB. […] Is commonly used model for permeation studies and toxicity of compounds across the BBB.
(§2) The co-culture assay was used to determine the capacity of the constructs cargo-shuttle to cross the BBB. The apparent permeability of the compounds was measured in triplicate at a concentration of 200 µ M for Examples 1, 2, 3, 5, 10, 13, 15, 16, 17 and 19 and at a concentration of 1.75 µM for Example 21. All the assays were performed with transendothelial electrical resistance values equal or higher than 100 Ω · cm^2 and were carried out in the presence of lucifer yellow to assess the integrity of the cell membrane during the test. The permeability tests were performed in Ringer-HEPES buffer at pH 7.4. The compound of interest was dissolved in the buffer to the desired concentration.
(§3) Once the endothelial cells were confluent on the filters (transwells) these were washed with Ringer-HEPES buffer. The acceptor well was filled with 800 µ L of Ringer-HEPES buffer and the donor well with 200 µL of the solution of the compound to be studied. The system was incubated at 37 °C and 5% CO2 for 2 h. After that time the content of the acceptor and donor compartments were analyzed by HPLC-UV, direct ELISA or fluorescence (depending on cargo anchored to the shuttle). […] The apparent permeability was calculated using the following equation: Papp = (dQ/dt) * (1/A) * (1/CO) (cm/s), where (dQ/dt) is the amount of compound present in the compartment acceptor function of time (nmol/s). A is the area of the filter(cm2) and CO is the initial concentration of the compound applied in the donor compartment (nmol/mL).

[2] = Stability of the shuttles in human serum; format: in vitro ADME; conditions: HBSS, 37 °C, 90% human serum
Method: Regarding to the stability study in human serum of the BBB-shuttle (examples 1, 2, 3 and 5), the peptides were incubated at a concentration of 400 µM in buffer HBSS at 37 °C in the presence of 90% human serum. At a range of times, 100 µL aliquots were collected to which methanol was added in order to precipitate the serum proteins. Samples were centrifuged, filtered and analyzed by HPLC-UV and MALDI-TOF MS to determine the degree of degradation of the BBB-shuttle. […] The half life of the derivative bearing a single disulfide bond was 3 h (examples 2), whereas that of the linear version was no more than 8 min.

[3] = tested on: human endothelial cells derived from hematopoietic stem cells; assay: Transport across the BBB, in vitro human cell assay (co-culture, transwell); format: in vitro ADME; conditions: human cell model, 37 °C, 25 nM Examples 22 and 23, 30 nM Example 24, 5 nM Example 25; for Transport (%) (2h): Ringer-HEPES pH 7.4, 200 µM peptides
Method: (§4) Due to the great interest to know whether the cargo-BBB shuttle conjugates would be transported across human brain endothelial cells, some of the most relevant cargoes for therapy and diagnosis were assayed in a novel human-based BBB cell model. In this case, the co-culture method used was described by Cecchelli et al. (Cecchelli et al. PloS One. 2014. vol9. pp. e99733) and consists in seeding bovine pericytes in the bottom of a 12-well plate and human endothelial cells derived from hematopoietic stem cells on a transwell filter.
(§5) The compound of interest was disolved or buffer-exhanged and diluted to the desired concentration.
(§6) Cetuximab and cetuximab conjugates were radiolabelled to be assayed in the cell model. Pierce^(R) iodination beads were used following the instructions provided by the manufacturer.
(§7) The apparent permeability was calculated using the same equation as for the bovine cell model.

[4] = Transport across the BBB, in vitro bovine cell assay (co-culture, transwell); conditions: pH 7.4; for Papp at 2 h: bovine
From the text: as §1, §2, §3

[5] = Transport across the BBB, in vitro human cell assay (co-culture, transwell); format: in vitro ADME; conditions: human cell model, 37 °C, Ringer-HEPES pH 7.4, 200 µM peptides, 25 nM Examples 22 and 23, 30 nM Example 24, 5 nM Example 25, read-out: Papp (x 10^6)
Method: as §4, §5, §6, §7

H-Cys-Lys-Ala-Pro-Glu-Thr-Ala-Leu-Cys-NH2 (H-CKAPETALC-NH2; cysteine pairing not given here) [Example 2]
Transport (%) (2h) [1]: 3.1±1.0% | half life in human serum ([2]; 400 µM): 3 h

Quantum dot-PEG-NH-V1-Dap-Lys-Ala-Pro-Glu-Thr-Ala-Leu-Asp-NH2 [Example 24]
Transport (%) (2h) [3]: 0.23±0.09%

H-KAPETAL-NH2 [Example 5, H-Lys-Ala-Pro-Glu-Thr-Ala-Leu-NH2]
Papp at 2 h [4]: 2 ± 0.6 ×10⁻⁶ cm/s | Transport (%) (2h) [1]: 2.3±0.8% | half-life at 400 µM [2]: ≤ 8 min

H-LPFFD-NH2 [H-Leu-Pro-Phe-Phe-Asp-NH2, reference compound]
detection of the cargo alone in the acceptor compartments by MALDI-TOF MS [1]: not detected

5(6)-carboxyfluorescein
detection of the cargo alone in the acceptor compartments by MALDI-TOF MS [1]: not detected

CCN(CC)c1ccc2c(-c3ccc(S(=O)(=O)O)cc3S(=O)(=O)[O-])c3ccc(=[N+](CC)CC)cc-3oc2c1 [sulforhodamine b]
detection of the cargo alone in the acceptor compartments by MALDI-TOF MS [1]: not detected

Gold nanoparticle-Cys-Dap-Lys-Ala-Pro-Glu-Thr-Ala-Leu-Asp-NH2 [Example 25]
Transport (%) (2h) [3]: 0.034%

CC[C@H](C)[C@H](NC(=O)[C@H](CCC(=O)O)NC(=O)[C@@H](NC(=O)[C@H](CCC(N)=O)NC(=O)[C@H](CCCCN)NC(=O)[C@@H]1CC(=O)NC[C@H](N)C(=O)N[C@@H](CCCCN)C(=O)N[C@@H](C)C(=O)N2CCC[C@H]2C(=O)N[C@@H](CCC(=O)O)C(=O)N[C@@H]([C@@H](C)O)C(=O)N[C@@H](C)C(=O)N[C@@H](CC(C)C)C(=O)N1)[C@@H](C)CC)C(=O)N[C@@H](CCCCN)C(=O)N[C@@H](CCCCN)C(=O)N[C@@H](Cc1ccccc1)C(=O)N[C@@H](CCCCN)C(N)=O [Example 27, H-Dap-Lys-Ala-Pro-Glu-Thr-Ala-Leu-Asp-Lys-Gln-Ile-Glu-Ile-Lys-Lys-Phe-Lys-NH2] (H-[Dap]KAPETALDKQIEIKKFK-NH2; lactam 1-9)
Papp at 2 h [5]: 1.9 ± 0.1 ×10⁻⁶ cm/s | Transport (%) (2h) [3]: 3.1±0.2%

O=C(O)CCCC[C@@H]1SC[C@@H]2NC(=O)N[C@@H]21 [biotin]
detection of the cargo alone in the acceptor compartments by MALDI-TOF MS [1]: not detected

CCN(CC)c1ccc2c(-c3ccc(S(=O)(=O)NCC(=O)N[C@H]4CSSC[C@@H]5NC(=O)[C@H](CC(C)C)NC(=O)[C@H](C)NC(=O)[C@H]([C@@H](C)O)NC(=O)[C@H](CCC(=O)O)NC(=O)[C@@H]6CCCN6C(=O)[C@H](C)NC(=O)[C@H](CCCCN)NC(=O)[C@H](CSSC[C@@H](C(=O)N[C@@H](Cc6c[nH]cn6)C(N)=O)NC(=O)[C@H](C)NC(=O)[C@H](C)NC(=O)[C@H](C)NC5=O)NC(=O)[C@H](CC(N)=O)NC4=O)cc3S(=O)(=O)[O-])c3ccc(=[N+](CC)CC)cc-3oc2c1 [Example 13, sulforhodamine b-Gly-Cys-Asn-Cys-Lys-Ala-Pro-Glu-Thr-Ala-Leu-Cys-Ala-Ala-Ala-Cys-His-NH2] (X1-GCNCKAPETALCAAACH-NH2; disulfide 2-12, 4-16)
Papp [4]: 2 ± 0.3 ×10⁻⁶ cm/s | Transport (%) (2h) [1]: 2.4±0.4%

CC(C)C[C@@H]1NC(=O)[C@H](C)NC(=O)[C@H]([C@@H](C)O)NC(=O)[C@H](CCC(=O)O)NC(=O)[C@@H]2CCCN2C(=O)[C@H](C)NC(=O)[C@H](CCCCN)NC(=O)[C@@H](NC(=O)[C@@H](N)Cc2ccc(O)c(O)c2)CSSC[C@@H](C(N)=O)NC1=O [Example 17, L-Dopa-Cys-Lys-Ala-Pro-Glu-Thr-Ala-Leu-Cys-NH2] (H-[Dopa]CKAPETALC-NH2; disulfide 2-10)
Papp at 2 h [4]: 2.4 ×10⁻⁶ cm/s | Transport (%) (2h) [1]: 2.9%

H-Cys-Lys-Ala-Pro-Glu-Thr-Ala-Leu-Cys-NH2 (H-CKAPETALC-NH2; cysteine pairing not given here) [Example 4]
Transport (%) (2h) [3]: 9.9±0.6% | Papp (x 10^6) cm/s ([3]; 2 h, Ringer-HEPES pH 7.4, 200 µM peptides): 6.1±0.4 (x 10^6) cm/s

N[C@@H](Cc1ccc(O)c(O)c1)C(=O)O [L-dopa]
detection of the cargo alone in the acceptor compartments by MALDI-TOF MS [1]: not detected

Lysozyme-V3-Cys-Asn-Cys-Lys-Ala-Pro-Glu-Thr-Ala-Leu-Cys-Ala-Ala-Ala-Cys-His-NH2 [Example 21]
Transport (%) (2h) [1]: 0.08±0.03% | Papp (x 10^6) cm/s [1]: 0.07±0.03 (x 10^6) cm/s

5(6)-Carboxyfluorescein-Cys-Asn-Cys-Lys-Ala-Pro-Glu-Thr-Ala-Leu-Cys-Ala-Ala-Ala-Cys-His-NH2 ({5(6)‑carboxyfluorescein}-CNCKAPETALCAAACH-NH2; disulfide 1-11, 3-15) [Example 10]
Transport (%) (2h) [1]: 3.7±1.8% | Papp (x 10^6) cm/s [1]: 3.1±1.5 (x 10^6) cm/s

CC(C)C[C@@H]1NC(=O)[C@H](C)NC(=O)[C@H]([C@@H](C)O)NC(=O)[C@H](CCC(=O)O)NC(=O)[C@@H]2CCCN2C(=O)[C@H](C)NC(=O)[C@H](CCCCN)NC(=O)[C@@H]2CSSC[C@@H](C(=O)N[C@@H](Cc3c[nH]cn3)C(N)=O)NC(=O)[C@H](C)NC(=O)[C@H](C)NC(=O)[C@H](C)NC(=O)[C@H](CSSC[C@H](NC(=O)CNC(=O)[C@H](CC(=O)O)NC(=O)[C@H](Cc3ccccc3)NC(=O)[C@H](Cc3ccccc3)NC(=O)[C@@H]3CCCN3C(=O)[C@@H](N)CC(C)C)C(=O)N[C@@H](CC(N)=O)C(=O)N2)NC1=O [Example 19] (H-LPFFDGCNCKAPETALCAAACH-NH2; disulfide 7-17, 9-21)
Papp at 2 h [4]: 1.5 ± 0.4 ×10⁻⁶ cm/s | Transport (%) (2h) [1]: 1.8±0.5%

Biotin-CNCKAPETALCAAACH-NH2 (cysteine pairing not given here) [Example 15]
Transport (%) (2h) [1]: 1.9±0.8%

CC(C)C[C@@H]1NC(=O)[C@H](C)NC(=O)[C@H]([C@@H](C)O)NC(=O)[C@H](CCC(=O)O)NC(=O)[C@@H]2CCCN2C(=O)[C@H](C)NC(=O)[C@H](CCCCN)NC(=O)[C@@H]2CSSC[C@@H](C(=O)N[C@@H](Cc3c[nH]cn3)C(N)=O)NC(=O)[C@H](C)NC(=O)[C@H](C)NC(=O)[C@H](C)NC(=O)[C@H](CSSC[C@H](NC(=O)[C@@H](N)Cc3ccc(O)c(O)c3)C(=O)N[C@@H](CC(N)=O)C(=O)N2)NC1=O [Example 16, L-Dopa-Cys-Asn-Cys-Lys-Ala-Pro-Glu-Thr-Ala-Leu-Cys-Ala-Ala-Ala-Cys-His-NH2] (H-[Dopa]CNCKAPETALCAAACH-NH2; disulfide 2-12, 4-16)
Papp at 2 h [4]: 2.6 ± 0.3 ×10⁻⁶ cm/s | Transport (%) (2h) [1]: 3.1±0.3%

CC(C)C[C@@H]1NC(=O)[C@H](C)NC(=O)[C@H]([C@@H](C)O)NC(=O)[C@H](CCC(=O)O)NC(=O)[C@@H]2CCCN2C(=O)[C@H](C)NC(=O)[C@H](CCCCN)NC(=O)[C@@H](N)CNC(=O)C[C@@H](C(N)=O)NC1=O [Example 3, H-Dap-Lys-Ala-Pro-Glu-Thr-Ala-Leu-Asp-NH2] (H-[Dap]KAPETALD-NH2; lactam 1-9)
Transport (%) (2h) [3]: 10.9±1.1% | Papp at 2 h [4]: 5.1 ± 0.6 ×10⁻⁶ cm/s | Transport (%) (2h) [1]: 6.0±0.7% | degradation in human serum ([2]; 400 µM, 24 h): No degradation
